From US20110217317A1 (published 2011)
Substitutions are numbered along the chain they refer to.

T1: Rhesus D antigen (human, UniProt Q02161 2-417)
T1 construct: whole, on cells; Presented on RhD-positive erythrocytes in all assays; also called RhD; RhD antigen
T1 sequence (looked up): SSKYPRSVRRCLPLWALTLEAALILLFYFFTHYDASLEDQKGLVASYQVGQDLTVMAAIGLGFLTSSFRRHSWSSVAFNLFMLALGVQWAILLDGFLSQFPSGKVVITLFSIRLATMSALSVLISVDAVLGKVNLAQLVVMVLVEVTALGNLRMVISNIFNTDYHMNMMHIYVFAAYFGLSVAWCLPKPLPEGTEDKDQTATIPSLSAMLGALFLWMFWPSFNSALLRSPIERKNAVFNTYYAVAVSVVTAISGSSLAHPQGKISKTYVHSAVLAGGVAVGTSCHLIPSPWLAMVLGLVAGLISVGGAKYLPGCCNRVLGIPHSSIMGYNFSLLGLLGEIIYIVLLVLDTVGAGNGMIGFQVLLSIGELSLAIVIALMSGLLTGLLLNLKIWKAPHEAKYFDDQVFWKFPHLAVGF

B1: RhD243.109A05 (Fab, V domains shown)
VH: QVQLVESGGGVVQPGRSLRLSCAASGFTFSTYGMHWVRQAPGKGLEWVAVIWYDGSQKYYVDSVKGRFTISRDNSKNTLYLQMNSLRAEDTAVYYCAREVAVRGVIRYYYGMDVWGQGTTVTVSS
VL: DIQLTQSPSSLAASVGDRVIITCRSGQGIRNYLNWYQQKPGKAPKLLIYAASFLQSGVPSRFSGSGSGTDFTLTISSLQPEDFATYNCQQSYSDPWTFGQGTKVEIKR
notes: Tested as Fab (periplasmic extract)
B2: RhD293.109A09 (Fab, V domains shown)
VH: B1 VH with Q1E, S30N, Q57N, V61A, G111A
VL: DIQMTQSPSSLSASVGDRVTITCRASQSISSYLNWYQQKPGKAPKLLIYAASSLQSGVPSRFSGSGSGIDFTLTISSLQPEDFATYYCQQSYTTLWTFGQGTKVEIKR
notes: as for B1
B3: RhD241.119B05 (Fab, V domains shown)
VH: QVQLQESGPGLVKPSETLSLICTVSGGSISSNYWSWIRQPPGKGLEWIGYIYYSGNTNYNPSLKSRVTISLDTSKNQFSLKLRSVTAADTAVYYCAREWRQYGSGIRGSRYYYGMDVWGQGTLVTVSS
VL: EIVLTQSPVTLSLSPGERATLSCRASQSVSSGYLAWYQQKPGQAPRLLIYGTSIRATGIPDRFSGSGSGTDFTLTISRLEPEDFAVYYCQQYGSSPLYSFGQGTKVDIKR
notes: as for B1
B4: RhD294.119E10 (Fab, V domains shown)
VH: QVQLVESGGGVVQPGRSLRLSCAASGFSFSNYGMHWVRQAPGKGLEWVAVISYDGSEKYYADSVKGRFTISRDNSKKTLYLQMNSLRAEDTAMYYCKNKVGATRRAVVAVDIWGQGTMVTVSS
VL: EIVLTQSPGTLSLSPRERATLSCRANQYVNSNHLAWYQQKPGQAPRLLLYGASRRATGIPDRFSGSGTGTDFTLIISRLEPEDFAVYFCQLYDHSRPMYTFGQGTKLEIKR
notes: as for B1
B5: RhD206.160C06 (Fab, V domains shown)
VH: QVQLVESGGGVVQPGRSLRLSCAASGFTFSSYGMHWVRQAPGKGLEWVAIIWFDGSNKYYADSVKGRFTISRDNSKNTLYLQINSLRAEDTAVYYCAKEHGYYSSSWYRNYYYYAMDVWGQGTTVTVSS
VL: DIQMTQSPSSLSASVGDRVTITCRASQSIRRYLNWYQKKPGKAPKLLIYAASSLQSGVPSRFSGSGSGTDFTLTISSLQPEDFATYYCQQSYRTQGLTFGGGTKVEIKR
notes: as for B1
B6: RhD295.119B11 (Fab, V domains shown)
VH: QVQLVESGGGLVQPGGSLRLSCVGSGFTFRSFDMNWVRQAPGKGLEWISYINSRGNTRYYVDSVKGRFTISRDNAKNSLYLQMNSLRAEDTAVYYCARDLYGDYDPKSYYYYGMDVWGQGTMVTVSS
VL: EIVLTQSPGTLSLSPGERATLSCRASQSFSSGYLAWYQQKPGQAPRLLIYGASNRATGIPDRFSGSGSGTDFTLTISRLEPEDFAVYYCQHYGSSPPITFGQGTRLEIKR
notes: as for B1
B7: RhD158.119B06 (Fab, V domains shown)
VH: EVQLVETGGGVVQPGRSLRLSCAASGFSFSNFGFHWIRQSPGKGLEWVAVIWYDGSNRFYADSVKGRFTISRDSSKNMLFLQMDSLRAEDTAVYYCAREISMKVVIRRHYVMDVWGHGTTVTVSS
VL: DIQMTQSPSPLSASVGDRVSITCRASRGISNSLAWYQQKPGKVPKLLIYAASTLQSGVPSRFSGGGSGTDFTLTISSLQPEDVATYYCHTYNSAPFAFGPGTKVDIKR
notes: as for B1
B8: RhD245.164E06 (Fab, V domains shown)
VH: EVQLVQSGGGVVQPGRSPRLSCAASGFTFSSYGMHWVRQAPGKGLEWVAFIWYDGSNKYYADSVKGRFTISRDNSKNTLYLQMNSLRAEDTAVYYCARDLRNHVFWSGYSTSFDYWGQGTLVTVSS
VL: DIQMTQSPSSLSASVGDGITITCRASQSVRSYLNWYQQKPGKAPELLIYAASRLQSGVPSRFSGSGSGTDFTLTISSLQPEDFATYYCQHSYSTPVTFGQGTKVEVKR
notes: as for B1
B9: RhD240.125A09 (Fab, V domains shown)
VH: QLQLQESGPGLVKPSGTLSLTCAVSGGSMRSSNWWTWVRQPPGKGLEWIGEIHHGGSTNYNPSLQSRVTISVDKSKNRFSLKLSSVTAADTAVYHCARGRSYYDSSGHSFRGLVPFDIWGQGTMVTVSS
VL: DIQMTQSPSTLSASVGDRVTITCRASQSISSWLAWYQQKPGKAPKLLVYKTSSLEGGVPSRFSGSGSGTEFSLTIFRLQSDDFATYYCQQYNSFPYTFGQGTKLEFTR
notes: as for B1
B10: RhD159.119B09 (Fab, V domains shown)
VH: EVQLVETGGGLVQPGGSLRLSCAASGFSFRSYDMNWVRQAPGKGLEWVSYISGRGSTTYYADSVKGRFTISRDNAKNSLYLQMNSLRAEDTAVYYCARDLYGDYDPKSYYYYAMDVWGHGTTVTVSS
VL: EIVMTQSPGTLSLSPGERATLSCRASHTVSSGYLAWYQQKPGQAPRLLIYGASNRATGVPDRFGGSGSGTDFTLTISRLEPEDSAVYFCQQYGTSPGVTFGQGTRLEIER
notes: as for B1
B11: RhD208.179B11 (Fab, V domains shown)
VH: EVQLVESGGGVVQPGRSLRLSCAASGFTFRTSAMHWVRQAPGKGLEWVAVIWYDGSNKYYADSVKGRFTISRDNSKNTLYLQMNSLRAEDTAVYYCAREMVSYSSSWYRRYYYYNMDVWGKGTTVTVSS
VL: QAVVTQEPSLTVSPGGTVTLTCASSTGSVTSGYYPNWFQQKPGQAPRPLISGTSNKLSWTPARFSGSLLGGKAALTVSGVQPEDEAVYYCLLYYGVPQPVVFGGGTKLTVLG
notes: as for B1
B12: RhD242.181A03 (Fab, V domains shown)
VH: B11 VH with R30S, T31N, S32H, A33G, V101A, N115V
VL: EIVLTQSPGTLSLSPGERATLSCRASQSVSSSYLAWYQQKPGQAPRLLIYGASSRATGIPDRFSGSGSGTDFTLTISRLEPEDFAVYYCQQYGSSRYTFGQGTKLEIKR
notes: as for B1
B13: RhD246.179B10 (Fab, V domains shown)
VH: B11 VH with S7T, R30S, T31S, S32Y, A33G
VL: LSSELTQDPAVSVTLGQTVRITCQGDSLRHSYASWYQQKPGQAPILVIYGKNIRPSGIPDRFSGSTSGNTASLTITGAQAEDGGDYYCNSRDTSTDHYVFGDGTRVTVVG
notes: as for B1
B14: RhD244.158B10 (Fab, V domains shown)
VH: QVQLVESGGGVVQPGRSLRLSCAASGFSFSSYGMHWVRQAPGKGLEWVAIIWYDGSNKLYADSVKGRFTISRDNSRNTLYLQMSSVRAEDTAVYYCARDSVRGVSRWGTQKYYAMDVWGQGTTVTVSS
VL: DIQMTQSPSSLSASVGDRVIITCRASQSVNRYLNWYQQKPGKAPKLLIYAASSLQGGVPSRFSGSGSGTDFTLTISSLQREDFATYYCQQSYRTRTFGQGTKVEIKR
notes: as for B1
B15: RhD205.160B12 (Fab, V domains shown)
VH: EVQLVETGGGLVKPGGSLRLSCAASGFTFRSYSMNWVRQAPGKGLEWVSSIGSSSTYTYSADSVKGRFTISRDNAKNSLYLQMNSLRAEDTAVYYCARGEPLNYDYIWGGYRFTIHWGQGTLVTVSS
VL: DIQLTQSPSFLSASVGDRVTITCRASHGISSYLAWYQQKPGKAPNLLIFPASTLQSGVPSRFSGSGSGTEFTLTISSLRPEDFATYYCQQLNSYSRWAFGQGTKVEVKR
notes: as for B1
B16: RhD239.126F09 (Fab, V domains shown)
VH: QVQLVESGGGVVQPGTSLRLSCAASGFTFRTYGMHWVRQAPGKGLEWVAYIWYDGSNKYYADSVKGRFTISRDNSKSTLNLQMNSLRAEDTAVYYCAREIASRGYSRYLYYFDSWGQGTLVTVSS
VL: DIQLTQSPSSLSASVGDRVTITCRASQSISSYLNWYQQKPGKAPKLLISAASSLQSGVPSRFSGSGSGTDFTLTISSLQREDYATYYCQQSYSTPPYTFGQGTKLEIKR
notes: as for B1
B17: RhD292.109A02 (Fab, V domains shown)
VH: QVQLVETGGGVVQPGRSLRLSCAASGFTFSSYGMHWVRQAPGKGLEWVAVIWSDGSNKYYADSVKGRFTISRDNSRNTLYLQMNSLRAEDTAVFYCAREQGGYSSSWYRRYYYYYMDVWGQGTTVTVSS
VL: B16 VL with L4M, Y32W, K45N, S49F, S53T, R80P, Y83F, T94S, P95S, P96V
notes: as for B1

target: T1, Rhesus D antigen; test: agglutination assay, Fab on RhD(+)/RhD(-) RBC mix
Method: After each round of panning single colonies were picked for analysis of their binding properties to red blood cells in agglutination assays. Briefly, single colonies were inoculated into 2×YT/100 μg/mL carbenicillin/1% glucose and shaken overnight at 37° C. The next day, DeepWell plates were inoculated using 900 μl 2×YT/100 μg/mL carbenicillin/0.1% glucose and 10 μl overnight culture. The plates were shaken for two hours at 37° C., before Fab induction was performed with addition of 300 μl 2×YT/100 μg/mL carbenicillin/0.25 mM IPTG per well. The plate was shaken overnight at 30° C. The following day, the bacteria were pelleted by centrifugation (3200×g, 4° C., 10 minutes), and re-suspended in 100 μl of 0.8 M NaCl, 0.2×PBS, 8 mM EDTA, and incubated for 15 minutes on ice in order to perform a periplasmic extraction of the Fab fragments. The plate was transferred to −20° C. and finally the suspension was thawed and centrifugation was performed for 10 minutes at 4° C. and 3200×g. The periplasmic extract was used in ELISA assays for analysis of Fab content and in agglutination assays to evaluate the binding potential of the individual Fab fragments. The agglutination assay was performed as follows: RhD(−) and RhD(+) RBC were mixed in a 1:1 ratio, and washed 3 times in PBS. After the final wash, the cell mix was re-suspended in 1% BSA in PBS at a density of 1% cells, 50 μl was added to each well of a 96-plate. Periplasmic extracts were added to the wells. As a positive control Rhesogamma P immunoglobulin (Aventis) was used according to the manufacturer's instructions. The plates were incubated for one hour at room temperature with gentle shaking. The cells were washed three times with PBS, before the secondary antibody was added (goat anti-human Fab/FITC conjugate, Sigma F5512) in a 1:100 dilution. The plates were left for agglutination for one hour at room temperature without shaking. Fab fragments positive in the agglutination assay was determined by visual inspection, and recorded by taking a picture. Quantization of the binding activity of the Fab fragments was performed by FACS analysis of the agglutination samples.

Binding result, binds:
B1, B2, B3, B4, B5, B6, B7, B8, B9, B10, B11, B12, B13, B14, B15, B16, B17
